From US20230055408A1 (JIANGSU HENGRUI MEDICINE, published 2023)

T1: human CEA protein on the cell surface (human, UniProt P06731 35-685)
T1 construct: whole, on cells; also called CEACAM-5; CD66e
T1 sequence (looked up): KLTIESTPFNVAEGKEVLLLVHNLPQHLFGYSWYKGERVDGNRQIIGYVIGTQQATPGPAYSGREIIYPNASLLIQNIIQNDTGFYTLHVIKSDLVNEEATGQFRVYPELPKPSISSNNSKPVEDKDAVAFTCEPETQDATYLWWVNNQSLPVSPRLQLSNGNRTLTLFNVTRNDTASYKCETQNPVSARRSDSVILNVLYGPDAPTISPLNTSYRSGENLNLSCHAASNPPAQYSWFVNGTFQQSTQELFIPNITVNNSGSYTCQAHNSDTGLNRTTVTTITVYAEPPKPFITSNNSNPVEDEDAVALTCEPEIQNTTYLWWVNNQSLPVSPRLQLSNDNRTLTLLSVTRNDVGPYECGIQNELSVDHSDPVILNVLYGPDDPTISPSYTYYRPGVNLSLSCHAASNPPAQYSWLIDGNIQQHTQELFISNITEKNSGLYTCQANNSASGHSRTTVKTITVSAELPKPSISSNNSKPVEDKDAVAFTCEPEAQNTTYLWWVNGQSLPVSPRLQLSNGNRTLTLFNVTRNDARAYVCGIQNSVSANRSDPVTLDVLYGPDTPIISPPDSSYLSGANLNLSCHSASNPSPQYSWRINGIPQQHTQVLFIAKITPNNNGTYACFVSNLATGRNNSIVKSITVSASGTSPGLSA

T2: human CEACAM1 expressed on CHO cell surface (human, UniProt P13688 35-526)
T2 construct: also called CEACAM1-CHO
T2 sequence: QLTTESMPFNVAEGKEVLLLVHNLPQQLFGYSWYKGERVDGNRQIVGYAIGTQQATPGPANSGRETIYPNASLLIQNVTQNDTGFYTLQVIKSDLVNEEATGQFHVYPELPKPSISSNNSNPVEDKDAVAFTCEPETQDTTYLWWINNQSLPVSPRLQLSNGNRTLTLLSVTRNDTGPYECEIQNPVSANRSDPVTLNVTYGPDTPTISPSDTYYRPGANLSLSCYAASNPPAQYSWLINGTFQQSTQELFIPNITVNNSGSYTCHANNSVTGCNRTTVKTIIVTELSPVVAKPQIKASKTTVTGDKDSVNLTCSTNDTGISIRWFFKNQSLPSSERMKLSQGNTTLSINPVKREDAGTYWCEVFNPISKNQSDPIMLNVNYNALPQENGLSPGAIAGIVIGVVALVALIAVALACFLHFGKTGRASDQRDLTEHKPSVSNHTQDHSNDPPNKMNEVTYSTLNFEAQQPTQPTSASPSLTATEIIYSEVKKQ

T3: monkey CEA expressed on CHO cell surface (cynomolgus monkey)
T3 construct: also called cynoCEA-CHO; monkey CEA proteins on the cell surface
T3 chain: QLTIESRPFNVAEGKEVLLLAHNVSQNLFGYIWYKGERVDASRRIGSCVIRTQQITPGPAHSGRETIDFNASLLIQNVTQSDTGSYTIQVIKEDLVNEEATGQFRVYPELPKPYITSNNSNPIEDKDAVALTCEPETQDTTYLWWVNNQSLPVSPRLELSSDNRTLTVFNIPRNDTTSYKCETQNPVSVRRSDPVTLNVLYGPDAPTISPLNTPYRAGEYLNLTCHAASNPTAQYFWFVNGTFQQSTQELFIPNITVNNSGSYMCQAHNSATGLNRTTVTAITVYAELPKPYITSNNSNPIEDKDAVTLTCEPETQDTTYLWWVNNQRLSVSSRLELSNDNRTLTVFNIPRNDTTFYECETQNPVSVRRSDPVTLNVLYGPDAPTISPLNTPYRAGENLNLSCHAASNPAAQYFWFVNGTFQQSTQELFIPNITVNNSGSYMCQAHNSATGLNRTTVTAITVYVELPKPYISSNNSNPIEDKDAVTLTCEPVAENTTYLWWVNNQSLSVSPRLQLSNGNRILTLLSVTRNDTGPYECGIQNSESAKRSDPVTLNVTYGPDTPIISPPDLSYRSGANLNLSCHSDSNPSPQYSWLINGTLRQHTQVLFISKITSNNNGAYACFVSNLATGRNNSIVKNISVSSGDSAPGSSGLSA


How the values were obtained:
[1] = target: T1, human CEA protein on the cell surface; assay: FACS, MKN45 cells
[2] = target: T1, human CEA protein on the cell surface; assay: FACS, MKN45 cells, -/+ 5 ug/mL sCEA as competitor
Experimental: The gradient-diluted antibody and the pre-incubated mixed solution of the antibody and sCEA was added into each well. The plate was incubated at 4° C. for 60 min and centrifuged, and the supernatant was removed. The cells were washed twice with pre-cooled PBS containing FBS at final concentration 10%. 50 μL of 1:200 diluted secondary antibody Alexa Fluor@488 goat anti-human IgG (H+L) (Lifetechologies, Cat #A11013) was added. […] The cells were washed twice with 250 μL of pre-cooled PBS with FBS at final concentration 10%. 100 μL of pre-cooled PBS was added to each well to resuspend the cells. The suspension was analyzed by a flow cytometer (FACS) (BD, FACSverse) for fluorescence signal values.

[3] = target: T2, human CEACAM1 expressed on CHO cell …; assay: FACS, CEACAM1-CHO cells
[4] = target: T3, monkey CEA expressed on CHO cell surface; assay: FACS, cynoCEA-CHO cells

| EC50 [1] [nM] | maximum ratio of fluorescence signals (absence of sCEA / presence of sCEA) [2] | binding result [3] | EC50 [4] [nM] | Binder |
| --- | --- | --- | --- | --- |
| 3.94 | 1.02 | no binding | 0.71 | mAb103 (antibody, V domains shown, Murine hybridoma antibody) VH: QIQLVQSGPELKKPGETVKISCKASGYTFTTYGVIWVKQAPGKGLKWMGWINTYSGVPTYADDFKGRFAFSLETSASTAFLQINNLKNEDTATYFCARKKTLTTVTPWFAYWGQGTLVTVSA VL: DLVVTQSSSASFSLGASAKLTCTLSSQHSTYTIEWYQQQPLKPPKYVMELKKDGSHSTGDGIPDRFSGSSSGADRYLTISNIQPEDEAIYICGVGNTIKEQFVYVFGGGTKVTVL |
| 2.1 | – | no binding | 1.66 | mAb47 (antibody, V domains shown, Murine hybridoma antibody) VH: QIQLVQSGPELKKPGETVKISCKASGYTFTTYGMSWVKQAPGKGLKWMGWINTYSGVPTYADDFKGRFAFSLETSASTAYLQINNLKNEDTATYFCARRGNYGRWDFDVWGTGTTVTVSS VL: EIVLTQSPALMAASPGEKVTITCSVSSTISSSNLHWYQQKSETSPKPWIYGTSNLASGVPVRFSGSGSGTSYSLTISSMEAEDAATYYCQQWSIYPLTFGAGTKLELK |

The next lines start with the binder.

| Binder | EC50 [1] [nM] | maximum ratio of fluorescence signals (absence of sCEA / presence of sCEA) [2] | binding result [3] | EC50 [4] [nM] |
| --- | --- | --- | --- | --- |
| mAb63 (antibody, V domains shown, Murine hybridoma antibody) VH: EVQLQQSGPELVKPGASVKMSCKASGYTFTDFYMNWVRQSHGKSLEWIGDIFPKNGNTDYNRKFKDKATLTVDKSSNTVYMEFRSLTLEDSAIYFCARSGYGNYVFDYWGQGTIFTVSS VL: DVQMTQTPSALSASLGDRVTISCRTSQDINIYLNWYQQKPDGTVKLLIYYRSGLLSGVPSRFSGSGSGTDYSLTISNLEPEDIATYFCQQGNTLPPTFGGGTKLEIK | 3.62 | 1.43 | no binding | 2.88 |
| mAb67 (antibody, V domains shown, Murine hybridoma antibody) VH: EVQLQQSGPELVKPGASVKIYCKASGYTFTDYHMNWVKQSHGKSLEWIGDINPDIGGTSYNQNFKGKATLTVDKSSSTAYMELRSLTSEDSAVYYCSRWDFDSFANWGQGTLVTVSA VL: DIVMTQSPASLAMSLGKRATISCRASESVSIIGTNLIHWYQQKPGQPPKLLIYHASNLETGVPARFSGSGSGADFTLTIDPVEGDDVALYYCLQSRKIPYTFGGGTKMEIK | 1.9 | – | no binding | 6 |
